Experimental data taken from PMC3214075.
Where a chain is given by its changes, count along the chain named. Numbers in names are those of the source. Each block holds one binder with its values, some of them ahead of it.

Molecular target: T1, 14-3-3, P63104
T1 chain: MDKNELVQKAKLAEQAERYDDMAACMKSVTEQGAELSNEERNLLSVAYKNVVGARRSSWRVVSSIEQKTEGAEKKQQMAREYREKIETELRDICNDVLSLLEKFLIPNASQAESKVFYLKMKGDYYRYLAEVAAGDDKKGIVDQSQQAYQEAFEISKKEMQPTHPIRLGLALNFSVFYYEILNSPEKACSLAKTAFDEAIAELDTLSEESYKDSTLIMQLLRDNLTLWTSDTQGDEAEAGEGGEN
Assay: GST pull-down, Western blot densitometry
Settings: chain shown with the change; 293T cell extracts, glutathione beads; two blots quantified; parent: est. 1.5; read off a plot

B1: GST-BAD wild type, full length (pEBG-BAD), Q61337 S111A; S112A (protein)
chain: MGTPKQPSLAPAHALGLRKSDPGIRSLGSDAGGRRWRPAAQSMFQIPEFEPSEQEDASATDRGLGPSLTEDQPGPYLAPGLLGSNIHQQGRAATNSHHGGAGAMETRSRHAAYPAGTEEDEGMEEELSPFRGRSRSAPPNLWAAQRYGRELRRMSDEFEGSFKGLPRPKSAGTATQMRQSAGWTRIIQSWWDRNLGKGGSTPSQ
response (IB:14-3-3/total 14-3-3): 1.9

B3: GST-BAD wild type, full length (pEBG-BAD), Q61337 S111A (protein)
chain: B1 chain with A112S
response (IB:14-3-3/total 14-3-3): 1.7

B5: GST-BAD wild type, full length (pEBG-BAD), Q61337 S111A; S112A; S136A (protein)
chain: B1 chain with S136A
response (IB:14-3-3/total 14-3-3): 0.22

B6: GST-BAD wild type, full length (pEBG-BAD), Q61337 S111A; S136A (protein)
chain: B1 chain with A112S, S136A
response (IB:14-3-3/total 14-3-3): 0.2

Next, values leading:

response (IB:14-3-3/total 14-3-3): 0.19
B2: GST-BAD wild type, full length (pEBG-BAD), Q61337 S112A; S136A (protein)
chain: B1 chain with A111S, S136A

response (IB:14-3-3/total 14-3-3): 1.8
B4: GST-BAD wild type, full length (pEBG-BAD), Q61337 S112A (protein)
chain: B1 chain with A111S

response (IB:14-3-3/total 14-3-3): 0.17
B7: GST-BAD wild type, full length (pEBG-BAD), Q61337 S136A (protein)
chain: B1 chain with A111S, A112S, S136A
